Results from a protein production outcome set (Wang et al. 2014).

Assay: label from the status in PepcDB records
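Further: failed if final PepcDB status was selected cloned or expressed and not failed if soluble or beyond.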

| Sequence | protein production |
| --- | --- |
| MATAALSAARPNRLSSASSDVPLHPLYLPTKLQFPSRKTQLWRSAAILLPTRRRCAPPRASSRADDSPPFDMSVETALKVLGVSEGASFDEILRAKKSILASRKDDPNAISQAEAAYDMLLMQSLNQRRAGKVVSNNIRYADVKSSNPLGTSTVTQWMKNPPVSVDMPSTSDLGIQAGVYGAMMVLTYVNGSSFESSGMPYAGADVPGLILASSFGASLYFMTKKKVKLGKAAALTAGGLVAGAVVGSAIETWLHVDVVPFLGLHSPAAVVSEFIVFSQFLVSLCLR | failed |
| MATAEAQIGVNRNLQKQDLSNLDVSKLTPLSPEVISRQATINIGTIGHVAHGKSTVVKAISGVQTVRFKNELERNITIKLERLSEKKIKNLLTSKQQRQQYEIKQRSMLRHLAELRRHSRFRRLCTKPASSSMPASTSSVDRRTTRRSTSQTSLSPSNSSGYGSVFGCEEHDVDKIPSLNGFAKLKRRRSSCVGAPTPNSKRSKNNMGVIAKRPPKGEYVVERIECVEMDQYQPVFFVKWLGYHDSENTWESLANVADCAEMEKFVERHQQLYEIYIAKITTELEKQLEALPLMENITVAEVDAYEPLNLQIDLILLAQYRAAGSRSQREPQKIGERALKSMQIKRAQFVRRKQLADLALFEKRMNHVEKPSPPIRVENNIDLDTIDSNFMYIHDNIIGKDVPKPEAGIVGCKCTEDTEECTASTKCCARFAGELFAYERSTRRLRLRPGSAIYECNSRCSCDSSCSNRLVQHGRQVPLVLFKTANGSGWGVRAATALRKGEFVCEYIGEIITSDEANERGKAYDDNGRTYLFDLDYNTAQDSEYTIDAANYGNISHFINHSCDPNLAVFPCWIEHLNVALPHLVFFTLRPIKAGEELSFDYIRADNEDVPYENLSTAVRVECRCGADNCRKVLF | failed |
| MATAVKLSGISKTFGSLKANDNVSLSIEAGSIHALVGENGAGKSTLSNIIYGLLHPDSGTIEIDGKAVKFSSVRQAIEAGIGMVHQHFMLVPTLSVTENIILGKEESRLALPTRRIGKEIRQLSQQHGLEVDPDALVSTLSVGEQQRVEILKLLYRRAKLLILDEPTAVLSPPETARLFATLRSLAAEGRTVLLITHKLDEVLTVSDSVSVMRKGSLVGTVPTTSTSKEDLARMMVGRDVLLRTANAPQTPGKTVLSIDKLTYRSPLGIDKLTGLTLHVRAGEIYGIAGVEGNGQSELLSLLWGTFDRSGKTGGSITIDAQETLGKNPSEIAALGVSMIPEDRHKSAIIAEYGIEENLILGRHREKAFHRGIGFDRDAVHKNATAMIEQYDIRCAAGTNPPIASLSGGNQQKIVVAREMERPQLKLLVLAQPTRGVDIGAIEQIHKRIIDARKSGLAILLISSELEEIVALSTRIGCLYKGAIRHEFSETEVWRGRDHESGFEKEIGMHITLEHHHHHH | not failed |
| MATESSSPSSVRKVVVHLRATGGAPILKQSKFKIPGTDKFAKVIDFLRRQLHSDSLFVYVNSAFSPNPDESVIDLYNNFGFDGKLVVNYACSMAWG | failed |
| MATHNIHMDCAVNPSVRWRSRPVSTQVPRTRRFAAVVGPIAFSTLGIVLSLFAAVAVDAQPRTPGRVAAVFPPWWDDARVVASAGTAGDIAGAGGASFIVILRGDPATLNQRARTAGAWLLLDPALAGACARPASEPVSS | failed |
| MATIAAADRTVTSVRPAELGVKVVIVMALLLIVMLIFAYKVVSLHNMKDEPFWAAYGLIITAFIFTRFGLAALYRPPRRDTGNYWPVVAIIVPAYNEPDIARTLLHCVGVDYPRELLRVVVVDDKSSDDTLRRITDFAAEHPNLTVIPHEVNGGKRRAMATGMAAADDADLFVFIDSDSQVTRDAIRVIASYFADSSVGAVCGHTDVTNISHNILTRMQAMQYYIAFRIYKSAEALFGSVTCCSGCFSAYRADAVRPVADKWLNQTFLGRPSTFGDDRSLTNYLLRDWRVLYAPDAQAYTNVPEHLKQFLRQQLRWKKSWLREAPRAMCAVRRKNPVMVVMFALSIVLPLIAPQVVMRAFVVQPHFISQLPFWYFGGVAAIAVIYGLFYRLHRPVKRWYQGIFFTMFYTIILVLQMPYAMVTIRDSKWGTR | failed |
| MATIEKRGSSYRARVTIYQHGKRDYLTKTFKTENEAKVWGTTLELEKAKGKAIAHQNTLFKDFYYLYVHTIKVNDVRKATFNNYLKAGLVINNLFPTAKLGKLDDVQMQKILDKYGETHSKKTVVELLKKIRTALRYAYAKGYIYNDFASLLKAHGKELPKRNKALSMSDLTKLKHYLLEHTDDEFNLMVLLEISTGLRRGEILGIKPEDVHYDGQYYCVEVRRSISPTTDDTKLKTKHSRRSVTIPKDVYDLLKTIPSKASGYLFDWFSFKQSELLKKLLKKIGIPSTTFHGLRDTHASFLFSNNIPLSYVSRRLGHDSILTTEKYYLELMPEKKHSQDANALNLLASL | failed |
| MATIRKLRGRWQAQVRRRGVPPRAKSFDTKTAAERWARDLEAEADRSGWVADTRAAEKTTLGELLSRYANEVTPAKRGAVSEKARINSIVRCPISHRTLAKLTSSDVAGYRDERLKTVAPATVVRELNTISHAIEVATREWGLWVPRNPVKLVRRPPVPRGRTRRLKEGEEQRLLDACDRGRTPLLKPLIILAIETGMRRGELLDLRWEHIDLKRGVAHLPLTKNGDSRDVPLSCRAVQTLQELRSAGVRHDRVFSMTGNSVRLAFEHLRVRAGMSDLHFHDLRHEAISRLFEKGLNIAEVSAISGHRELKMLQRYTHLRAVDLVARLG | failed |
| MATKGLKMVTLALLDDKGVIVKGETGLSTNGVFPITDEMLGTKTANITNLSSAPTMIYGNDGQVDADIAKGTPSVAFAFNGLPVDIKNKLLGRVNDTKGGYTQGSIPKVAVLIQTTTIGTAKPQYVAFAAGKMNETAMNLQTNTNAVVRVDDALTFTAFSVSRWGGEAVKFFDGGDSKFTEDVMMKDVFNGYAGVGV | failed |
| MATKLVIAIVQDKDANYLSDQFIDQNVRATKLSTTGGFLQSGNTTFMIGIEEERVPEVLEIIKKASHTREEFMTPSVNMDVNMEGTTAYPIKVQVGGATVLVLPVDQFERF | not failed |
| MATLDERARPWARKSRWNGYAYEFLLFGLKQAWACLFGGLMLALLVGTKLFWPEAAPIARYDFLVVAAIAIQASLLALKLERWDEALVIFMFHVVGTIMELFKTAHGSWIYPEDSVLRIGGVPLFTGFMYACVGSYIARIWRLFDITFIRYPPFWTTHILAVLIYANFFTHHYMIDIRVGLFALSVLLFGRTWFVFTPDQTARRMPMLMGAVLVSLFIWFAENLGTFAGAWIYPNQADGWQMVPFEKMGAWYLLMLISFVLVTLVHPPVHACVARIRQGIWRAA | failed |
| MATLGANASLYSEQHRITYYECDRTGRATLTTLIDIAVLASEDQSDALGLTTEMVQSHGVGWVVTQYAIDITRMPRQDEVVTIAVRGSAYNPYFAYREFWIRDADGQQLAYITSIWVMMSQTTRRIVKILPELVAPYQSEVVKRIPRLPRPISFEATDTTITKPYHVRFFDIDPNRHVNNAHYFDWLVDTLPATFLLQHDLVHVDVRYENEVKYGQTVTAHANILPSEVADQVTTSHLIEVDDEKCCEVTIQWRTLPEPIQ | not failed |
| MATLSFGIAAAATTVRTIPRFNSRRSKITCEWDPKGVLGPAQTGHIARLEFKRRLERDSEAREAFQKQLREEKERRQALRQSRVVPDTAAELIEYFLDTEAQEIEYEIARLRGRLNDEFFAQIRLEIGQIRFAVTKTADIEDRLIELETLQKALEEGIEAYDKMQNELMTATNSLTKLLTSTDIKTTLLDMVEKNQINRSLLALLDENIANAYKGNQKEAGDYMEKIRSSVLKYLTV | failed |
| MATLTEDDVLEQLDAQDNLFSFMKTAHSILLQGIRQFLPSLFVDNDEEIVEYAVKPLLAQSGPLDDIDVALRLIYALGKMDKWLYADITHFSQYWHYLNEQDETPGFADDITWDFISNVNSITRNATLYDALKAMKFADFAVWSEARFSGMVKTALTLAVTTTLKELTP | not failed |
| MATPKFAEIKQYITGCIESGEWEENARVPSENQLAELFVCSRMTARRALTELTDNGVLERSQGLGTFVAGRKSQSSMLAIRNIADEIKDRGHGYSVQQLALEQVNATAPIAIALALDVGSPVFHSILVHCEQGVPLQVEERYVNPAFAPDYLVQDFSEQTPHEYLSQVAPLTEAHHTIEAIIASSELQQRLAIPATEPCLQISRRTWSRQGVVSFAKLVHPGSRFKLGGHLTFNK | failed |
| MATPSGIVRFPGAGCVVEFMQGNRPQIAWVMEEQGGRLRLFLPNRRETKLAAARLLPWAGPRYDGERSRDDMVALLEEHRQRRDTREADIQPLELWEMVQGEVEQASVEWFAELLGETPGVDEVAAMGRALLGCKTHFKFHPPDFEVYDAAKVEARMVEMEAARVREALVEAGQAFIKVLWDVHCRRRTMPLPSSSEMPPAEVAERLATLLRTRMADPDDHDSDSVWKQVTKGLPDDAHMPLHLAAAWGIVPVHHNFWMDRAGYAPGDEWAIDHVDEIDALMKRVEALREPLVDGTFISIDSSTTRDIDDAFDISPSPEGGWILRLVLASPVTGWDFDGPLDRAVLRRATSIYLPERSHHMMPETLGTDAYSLLAGQDRPALLVTFDIAPDGSLRSTTPATGWVRLAANLTYTECEACLTGEGDAGRAAPHADRLALADALARVRQQLRVAAGAVIIERDDPKVTLEGEGCAVKVHVAPPDETPRAQLLVSEMMILANAAIASWGAERGITLLHRTQDVGIPREYAGVWNQPHDIARVVKALAPAHLEPVAKPHAGIAVPAYSPVTSPLRRYPDLVNEAQVIHYLTHGTPRWSREEVEAMLPLLGARLDAAGQVQRFRPRYWKLFYIRQQGDKAWHEAVVTEENDAFVTISLPEVQIFVRGRRSTFGDKVYPGQHFNVRLGKVHPLNNEIQIVDAMEG | failed |
| MATPTQTPTKAPEEPDPFYYDYNTVQTVGMTLATILFLLGILIVISKKVKCRKADSRSESPTCKSCKSELPSSAPGGGGV | not failed |
| MATRAPASTLRQIPSGIWMLGCVSLLMDISSEIIHSLLPVFMVTTLGASALAVGLIEGAAEATALIVKVFSGVLSDYLGKRKALAVLGYGLGALSKPLFAVAPGVGTILAARLSDRIGKGIRGAPRDALVADIAPAHLRGAAFGLRQALDTVGAFLGPLIAIGLMMLWANDFRAIFWVAVVPGVLSVALLAFGVKEPQTHTGDKRVNPIRRANLARLGPAYWGVVAVGTAFALARFSEAFLILRVQQEGLPLFMAPLVLVTMNAVFAVTAYPFGKLADNCSHDKLLVAGLAVLIVADTVLAVGSHWSIALVGVALWGLHMGMTQGLLATMVADAAPADLRGTAFGVFNLASGLALLAASVMAGWLWDRHGAAATFHAGAGFCVLTIALLIHRLRNRPASGAATR | failed |
| MATSAKTLQQRMGIIALTWPIFIETLLQSLLGISDIFMLSHYSDNAVAAVGLTTQLMFFMMVMSMMVSTGASILISQNNGAGRTQEATDIGVASVALSLGLAVVMGAAMFFCAHGIIGLFELEPKVAGYGYDYLLICGSLSIGLVMNIAFAAILRSYGFTRSAMLVTLSTGLMNVLGNYIALYSPFGLPVYGVTGVAISTVTSQLMGALIMLAVIRSKHIPLPMQRLNSLPRSTYWSVMRIGLLNAGEMLSYNVAQMTIIYFISQMGTLSLTAYTYGLNISRFIYCFSVALGQAAQIQTGYYVGKQWFDEITVRVQKYCLVGFIVSLAIVLIFFWQRFTIVGWLSENPEVIQLTALLLLGSIALETGRVFNLVIISALKGAGDVAFTVRVGLFSMWGIGVLLAWFFGLYLGYGVLAAWLAVAADEWVRGLIMVQRWRSGRWQRFTRIPPATSA | failed |
| MATSRTQRDVWVYVGIGAMVSALVLFSLVPLVMGLWQPRPAADGVVNGGTPLESQALGYQLVLEREPDNVNALQGLLEIRLQQKNLAAAIAPLERLGQIRTDQVQYRILLAQLKTQLEDNAGAAKVYREILTQSPHNIQALKGLSGLYAQQERPAEAVAIVQNAITQAIKAQTGAPGTVPPDQLTSLQLLLGEIYLSQNRPDQAIAIYEAASKVNGNDFRPVLAQAQVMAQTGKVKEADPFFQQAIMLAPVQYKDPIKNIALQVTNQALANQNGAPETSIPSPAPILKSE | failed |
| MATTKKKPIHVNVDENLKEEAEQLFDDLGLNMTSAITIFLKQSINEQAIPFMINKGNKETLQALKDIKEGNVHGGFSSVEDLMEDLNALEHHHHHH | not failed |
